The results in this text go back to article doi:10.1101/2022.08.25.505315 (bioRxiv, 2022).

This data set deals with the molecule itself. The experiment in a line: SEC. A general note: In gel filtration, larger molecules generally elute earlier.

B1: human malic enzyme 3 (mitochondrial NADP+-dependent malic enzyme 3), residues 46-604 (enzyme, UniProt Q16798 46-604, looked up)
chain: LKKRGYDVTRNPHLNKGMAFTLEERLQLGIHGLIPPCFLSQDVQLLRIMRYYERQQSDLDKYIILMTLQDRNEKLFYRVLTSDVEKFMPIVYTPTVGLACQHYGLTFRRPRGLFITIHDKGHLATMLNSWPEDNIKAVVVTDGERILGLGDLGCYGMGIPVGKLALYTACGGVNPQQCLPVLLDVGTNNEELLRDPLYIGLKHQRVHGKAYDDLLDEFMQAVTDKFGINCLIQFEDFANANAFRLLNKYRNKYCMFNDDIQGTASVAVAGILAALRITKNKLSNHVFVFQGAGEAAMGIAHLLVMALEKEGVPKAEATRKIWMVDSKGLIVKGRSHLNHEKEMFAQDHPEVNSLEEVVRLVKPTAIIGVAAIAGAFTEQILRDMASFHERPIIFALSNPTSKAECTAEKCYRVTEGRGIFASGSPFKSVTLEDGKTFIPGQGNNAYVFPGVALGVIAGGIRHIPDEIFLLTAEQIAQEVSEQHLSQGRLYPPLSTIRDVSLRIAIKVLDYAYKHNLASYYPEPKDKEAFVRSLVYTPDYDSFTLDSYTWPKEAMNVQTV
B1: the “stoichiometry N” value was determined as 4.

For orientation: stoichiometry N means a count of units in the complex or per binding partner.
